One molecule from paper PMC12374583 (2025) can be followed below.

In this assay the target is CR3 (Homo sapiens, UniProt P11215). The assay can be described thus: MST.

By Kd is commonly meant the constant that tells how readily two partners part at equilibrium. The molecule SSKITHRIHWESASLLR [Complement C3] came in with a Kd of 5.73 nM.
